Laboratory results reported in patent US9273140B2, “Antibody for detecting DNA damage in cells utilizing cell membrane surface antigen Ly6D” (FUJITA HEALTH UNIVERSITY, priority 2012, dated 2016).

Key:
[1] = system: LY6D expression on the surfaces of MCF10A cells; experiment: LY6D expression in MCF10A cells incubated with DNA-damaging stressors, by FCM; type: cell-based; conditions: contact with DNA-damaging stressor (MMC 300 nM; hydroxyurea 2 mM), FIG. 4
Description: MCF10A cells were incubated with DNA-damaging stressor (MMC: 300 nM), carboplatin, hydroxyurea (2 mM), or aphidicolin and relative LY6D expression was determined by FCM.
After the growth to confluence, the cells were irradiated at 10Gy (3 mA/50 kV) in cabinet-type X-ray apparatus (SOFRON, soft X-ray inversion system). At a desired timing after irradiation, the cells were harvested.
The FCM analysis was carried out according to the method reported previously (Kurosawa et al., 2009, Immunol. Meth. 351: 1-12). Reactivity of the obtained anti-Ly6D antibodies was examined using the Ly6D expression cell line, namely A431™ (cell line human squamous carcinoma) (CML ATCC CCL-243). The A431 cells were recovered by centrifugation. The recovered cells were washed once with PBS and then suspended in FACS Buffer (PBS containing 1% BSA, 2 mM EDTA, and 0.1% NaN3) to result in 1×10^6 cells/mL. The cell suspension (100 μL) was dispensed on a 96-well V-bottomed plate (Costar 3897). The Ly6D antibodies were adjusted to a concentration of 0.02 to 2 μg/mL using FACS Buffer. The prepared antibody solution (100 μL) was added to the cells, followed by incubation at 4° C. for 1 hour. The cells were washed twice with FACS buffer. Then, 100 μL of ALEXAFLUOR-anti-human IgG™ (fluorescent antibody) (Invitrogen) diluted 750-fold with FACS Buffer was added to the cells, followed by another incubation at 4° C. for 1 hour. The cells were washed with FACS Buffer twice by centrifugation and set in HTS of FACS Calibur (BD) for measurement of FL1 fluorescence intensity of each well.
It is well known that X-ray irradiation causes damage to DNA, which results in DNA double-strand breaks. A variety of chemical reagents also cause DNA damage stress in cells. Therefore, the influence of camptothecin (CPT) on the LY6D expression in MCF10A cells was examined. […] Therefore, the induction of LY6D expression on the surfaces of MCF10A cells was confirmed to be a common phenomenon due to DNA damage stress.

[2] = system: LY6D expression; conditions: Rubinfeld et al., 2006; cited from earlier work
[3] = system: MCF10A cells; experiment: Selection of monoclonal antibodies by cell ELISA, FCM and confocal laser microscopy on X-ray-irradiated and non-irradiated cells; type: binding
Description: X-ray-irradiated MCF10A cells (black bars) and non-irradiated MCF10A cells (gray bars) were subjected to ELISA using six monoclonal antibodies (A: cell ELISA). X-ray-irradiated cells (pink) and non-irradiated cells (green) were incubated with six monoclonal antibodies and subjected to FCM, and non-irradiated cells incubated with PBS were used as a negative control (purple) (B: FCM). X-ray-irradiated cells and non-irradiated cells were stained with the E33-139 monoclonal antibody (green) and DAPI (blue), respectively, and examined using a confocal laser microscope (C: immunofluorescence confocal laser microscopy).
X-ray-irradiated cells and non-irradiated cells were prepared, and antibodies specific to the irradiated cells were screened for by cell ELISA. That is, reactivity of antibody to both cells was examined by ELISA. A blocking solution (5% skim milk/0.05% NaN3/PBS) was added at 200 μL/well to both cells, followed by blocking at 37° C. for 2 hours. The blocking solution was removed and the cells were washed with PBS. The supernatant of the above antibody expression culture was added at 100 μL/well, followed by reaction at 37° C. for 1 hour. The resultant was washed five times with PBS. Rabbit anti-cp3 (1 μg/mL) diluted with PBS/0.05% Tween 20 was added at 100 μL/well, followed by reaction at 37° C. for 1 hour. The resultant was washed five times with PBS. Anti-Rabbit IgG (H+L)-HRP diluted 2000-fold with PBS/0.05% Tween 20 was further added at 100 μL/well, followed by reaction at 37° C. for 1 hour. The resultant was washed five times with PBS. […] Then, the absorbance at 492 nm was measured by SPECTRAmax340PC (Molecular Devices). Antibodies showing obvious positive reactivity specific to only the irradiated cells were selected and DNA sequences of the phages were analyzed. […]
The FCM analysis was carried out according to the method reported previously (Kurosawa et al., 2009, Immunol. Meth. 351: 1-12). […] The cells were washed with FACS Buffer twice by centrifugation and set in HTS of FACS Calibur (BD) for measurement of FL1 fluorescence intensity of each well. […]

[4] = target: T1, LY6D (Homo sapiens, UniProt Q14210); experiment: Immunoprecipitation, western blot and mass spectrometry to identify the antigen recognized by the antibody; type: binding; conditions: for 14 kDa band in western blot of immunoprecipitate: FIG. 2A
T1 construct: LY6D was identified by the precipitate derived from the X-ray-irradiated cells; endogenous in cells; host or cells: MCF10A cells (X-ray-irradiated and non-irradiated); FaDu cells
T1 sequence (Q14210 21-98 limits assumed): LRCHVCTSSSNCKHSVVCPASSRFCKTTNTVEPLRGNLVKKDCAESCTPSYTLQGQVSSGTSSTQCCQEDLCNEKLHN
Description: After biotinylation, the membrane proteins of the X-ray-irradiated MCF10A cells (right) and non-irradiated MCF10A cells (left) were solubilized and subjected to immunoprecipitation using the E33-139 monoclonal antibody, the product was separated by SDS-PAGE, and western blot was performed with HRP-conjugated streptavidin (A: western blot). MCF10A cells treated as described above were digested with PI-PLC, the resultant was centrifuged, and cell pellets (P) and the supernatant (S) subjected to PI-PLC treatment were separately immunoprecipitated (B: western blot). FaDu cells were treated with LY6D siRNA or control siRNA and analyzed by FCM using the E33-139 monoclonal antibody (black line: control siRNA and the E33-139 monoclonal antibody; dashed line: LY6D siRNA and the E33-139 monoclonal antibody; gray: control siRNA without the E33-139 monoclonal antibody (C: FCM). The experiment shown in FIG. 2B was carried out using FaDu cells (D: western blot). Solubilized FaDu cells were subjected to IP using the E33-139 monoclonal antibody and the product was separated by SDS-PAGE (left: western blot using anti-hLY6D Ab (polyclonal Ab, commercial product); right: silver stained gel) (E: western blot).
Conditions of immunoprecipitation were set as previously reported (Kurosawa et al., 2009, J. Immunol. Meth. 351: 1-12). […] The concentrate was analyzed by LC/MS.
Immunoprecipitation (IP) was performed to identify an antigen recognized by the E33-139 antibody. […] They were determined to be detected in precipitates in a nonspecific manner because they are abundant in the cytoplasm. […] Therefore, LY6D was determined to be a promising candidate as an antigen recognized by E33-139.
It has been reported that LY6D is abundantly expressed in a large amount in squamous cell carcinoma of head and neck (Quak et al., 1990, Am. J. Pathol. 136: 191-197). […] Before digestion with PI-PLC, a 14-kDa band was detected by the western blot method. […] The resulting blots were detected using a commercially available anti-human LY6D antibody. […]

With `C[C@@]1(CO)[C@H](O)CC[C@@]2(C)[C@H]1CC[C@H]1C[C@@H]3C[C@@]12CC[C@]3(O)CO` [aphidicolin] the “LY6D expression on the surfaces of MCF10A cells” value (from here on “LY6D expression on the surfaces”) [1] was “induced”.

In the case of `CO[C@@]12[C@H](COC(N)=O)C3=C(C(=O)C(C)=C(N)C3=O)N1C[C@@H]1N[C@@H]12` [mitomycin C], the “LY6D expression on the surfaces” value [1] is reported as “induced”.

For `NC(=O)NO` [hydroxyurea], the “LY6D expression on the surfaces” value [1] was “induced”.

For `N.N.O=C([O-])C1(C(=O)[O-])CCC1.[Pt+2]` [carboplatin], the “LY6D expression on the surfaces” value [1] was “induced”.

In the case of `CCc1c2c(nc3ccc(OC(=O)N4CCC(N5CCCCC5)CC4)cc13)-c1cc3c(c(=O)n1C2)COC(=O)[C@]3(O)CC` [irinotecan], the “LY6D expression after chemotherapy treatment” value [2] is listed as “significantly enhanced”.

B1: E33-139: human phage antibody (scFv) against LY6D; sequence SEQ ID NOS: 1 and 2, CDRs SEQ ID NOS: 3 to 8 (protein)
scFv: MAEVQLVESGGGLVQPGRSLRLSCAASGFTFDDYAMHWVRQAPGKGLEWVSGISWNSGSIGYADSVKGRFTISRDNAKNSLYLQMNSLRAEDTALYYCAKTGILDAFDIWGQGTTVTVSRGGGGSGGGGSGGGGSMAQSVLTQPPSVSGAPRQTVTISCSGSSSNIGQNSVTWYQRLPGEAPKLLIYYDDLLHSGVSDRFSGSKSGTSASLAISGLQSEDEAEYYCASWDDSLKGPVFGGGTKLTVLGQPKAAPSVTLFPPSSEELQANKATLVCLISDFYPGAVTVAWKADSSPVKAGVETTTPSKQSNNKYAASSYLSLTPEQWKSHKSYSCQVTHEGSTVEKTVAPTECSAR
modifications: human
With B1 the “reactivity to MCF10A cells after X-ray irradiation” value ([3]; X-ray-irradiated MCF10A cells (10Gy)) was “increased reactivity”, the “binding to molecules on the surfaces of X-ray-irradiated cells, confocal laser microscope analysis” value ([3]; X-ray-irradiated MCF10A cells, FIG. 1C) was “consistently and strongly binds” and the “reactivity to MCF10A cells before X-ray irradiation” value ([3]; non-irradiated MCF10A cells) was “no reactivity”. For the same molecule, the “antigen recognized by the antibody” value ([4]; IP, MS, PI-PLC, siRNA and anti-human LY6D western blot) was “antigen protein 139 is LY6D”, the “14 kDa band in western blot of immunoprecipitate” value ([4]; samples from X-ray-irradiated MCF10A cells) was “a prominent band was observed” and the “14 kDa band in western blot of immunoprecipitate” value ([4]; samples from non-irradiated MCF10A cells) was “slightly observed”.
